# According to patent US20140120095A1 (Boehringer Ingelheim, published 2014):
# Key:
# [1] = biological target: T1, recombinant human VEGF165 (human, UniProt P15692-4 27-191, biotinylated in the competition assays); assay: AlphaScreen, hVEGF165/hVEGFR2-Fc competition; parameters: % inhibition: concentration or dose not given beside the values
# T1 construct: Bought protein; also called hVEGF165; rhVEGF165
# [2] = biological target: T2, human DLL4 overexpressed on cells (human, UniProt Q9NR61 27-685); assay: FMAT, labelled hNotch1-Fc on CHO-hDLL4, periplasmic extract
# T2 construct: full length human DLL4 on CHO or HEK293 cells; also called CHO-hDLL4; CHO-hDII4
# Excerpt: (§1) All calculations are based on the FL1_total signal which comprises the average of the fluorescence per well times the number of counts per well.
# [3] = biological target: T3, mouse DLL4 overexpressed on cells (mouse, UniProt Q9JI71 27-686); assay: FMAT, labelled hNotch1-Fc on CHO-mDLL4, periplasmic extract
# T3 construct: whole, on cells; also called CHO-mDLL4; CHO-mDII4
# Excerpt: as §1
# [4] = biological target: T4, recombinant human DLL4 (C-terminally His-tagged extracellular domain, R&D Systems) (human, UniProt Q9NR61 25-522, biotinylated in the competition ELISA); assay: competition ELISA hDLL4/hNotch1-Fc; summary table
# T4 construct: also called rhDLL4; hDLL4
# [5] = biological target: T4, recombinant human DLL4 (C-terminally …); assay: competition ELISA, biotinylated hDLL4 to coated hNotch1-Fc
# [6] = biological target: T4, recombinant human DLL4 (C-terminally …); assay: SPR (Biacore), rhDLL4
# Experimental: Kinetic analysis to determine the affinity of the DII4-VHH interaction is performed by Surface Plasmon Resonance (SPR) on a Biacore T100 instrument. […] Purified VHHs or Fab fragment are injected for 2 minutes at different concentrations (between 10 and 300 nM) and allowed to dissociate for 20 min at a flow rate of 45 μl/min. Between sample injections, the surfaces are regenerated with 10 mM glycine pH1.5 and 100 mM HCl. HBS-N (Hepes buffer pH7.4) is used as running buffer. If possible, data are evaluated by fitting a 1:1 interaction model (Langmuir binding) onto the binding curves. The affinity constant KD is calculated from resulting association and dissociation rate constants (kₐ) and […].
# [7] = biological target: T4, recombinant human DLL4 (C-terminally …); assay: SPR (Biacore); summary table
# [8] = biological target: T4, recombinant human DLL4 (C-terminally …); assay: ProteOn off-rate screen, periplasmic extract, coated human DLL4
# Experimental: (§2) In a first cycle, amino acid substitutions are introduced randomly in both framework (FW) and complementary determining regions (CDR) using the error-prone PCR method. […] After a polish step, PCR products are inserted via unique restriction sites into a vector designed to facilitate phage display of the VHH library. Consecutive rounds of in-solution selections are performed using decreasing concentrations of biotinylated recombinant human DLL4 (biot-rhDLL4) and trypsin elutions. Affinity-driven selections in a third round using cold rhDLL4 (at least 100× excess over biot-rhDLL4) are also performed. No selections on murine DLL4 are included as (conservation of) cross-reactivity is assessed at the screening level. Individual mutants are produced as recombinant protein using an expression vector derived from pUC119, which contains the LacZ promoter, a resistance gene for ampicillin, a multiple cloning site and an ompA leader sequence (pAX50). E. coliTG1 cells are transformed with the expression vector library and plated on agar plates (LB+Amp+2% glucose). Single colonies are picked from the agar plates and grown in 1 mL 96-deep-well plates. VHH expression is induced by adding IPTG (1 mM). Periplasmic extracts (in a volume of ˜80 uL) are prepared according to standard methods and screened for binding to recombinant human and mouse DII4 in a ProteOn (BioRad, Hercules, Calif., USA) off-rate assay. In brief, a GLC ProteOn Sensor chip is coated with recombinant human DII4 on the “ligand channels” L2 and L4 (with L1/L3 as reference channel), while “ligand channels” […] is coated with mouse DII4. Periplasmic extract of affinity-matured clones is diluted 1/10 and injected across the “analyte channels” A1-A6. An average off-rate is calculated of the wild type clones present in the plate and served as a reference to calculate off-rate improvements.
# [9] = biological target: T5, recombinant mouse DLL4 (C-terminally His-tagged extracellular domain, R&D Systems) (mouse, UniProt Q9JI71 27-532); assay: ProteOn off-rate screen, periplasmic extract, coated mouse DLL4
# T5 construct: extracellular domain; also called rmDLL4; mDLL4
# Experimental: as §2
# T5 sequence (Q9JI71 27-532): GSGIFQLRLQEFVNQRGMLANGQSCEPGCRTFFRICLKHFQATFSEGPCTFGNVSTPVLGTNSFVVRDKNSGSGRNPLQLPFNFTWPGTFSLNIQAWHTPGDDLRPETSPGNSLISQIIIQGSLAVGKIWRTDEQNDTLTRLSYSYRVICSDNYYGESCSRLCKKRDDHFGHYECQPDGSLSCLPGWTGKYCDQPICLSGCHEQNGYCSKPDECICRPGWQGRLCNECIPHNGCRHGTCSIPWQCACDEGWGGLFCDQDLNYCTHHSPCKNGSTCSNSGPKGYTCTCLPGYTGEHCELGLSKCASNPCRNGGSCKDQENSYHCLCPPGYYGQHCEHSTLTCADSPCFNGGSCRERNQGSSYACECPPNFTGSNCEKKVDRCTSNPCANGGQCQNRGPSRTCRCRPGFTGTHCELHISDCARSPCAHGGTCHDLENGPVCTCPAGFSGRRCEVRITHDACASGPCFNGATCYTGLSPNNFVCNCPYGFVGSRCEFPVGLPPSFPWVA
# T1 sequence (P15692 other isoform, or with tags, fused parts or gaps): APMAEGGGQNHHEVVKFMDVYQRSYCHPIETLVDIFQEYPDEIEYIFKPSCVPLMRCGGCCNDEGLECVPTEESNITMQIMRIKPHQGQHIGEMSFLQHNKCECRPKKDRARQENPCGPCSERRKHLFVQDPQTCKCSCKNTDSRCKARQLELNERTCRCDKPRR
# T3 sequence (Q9JI71 27-686): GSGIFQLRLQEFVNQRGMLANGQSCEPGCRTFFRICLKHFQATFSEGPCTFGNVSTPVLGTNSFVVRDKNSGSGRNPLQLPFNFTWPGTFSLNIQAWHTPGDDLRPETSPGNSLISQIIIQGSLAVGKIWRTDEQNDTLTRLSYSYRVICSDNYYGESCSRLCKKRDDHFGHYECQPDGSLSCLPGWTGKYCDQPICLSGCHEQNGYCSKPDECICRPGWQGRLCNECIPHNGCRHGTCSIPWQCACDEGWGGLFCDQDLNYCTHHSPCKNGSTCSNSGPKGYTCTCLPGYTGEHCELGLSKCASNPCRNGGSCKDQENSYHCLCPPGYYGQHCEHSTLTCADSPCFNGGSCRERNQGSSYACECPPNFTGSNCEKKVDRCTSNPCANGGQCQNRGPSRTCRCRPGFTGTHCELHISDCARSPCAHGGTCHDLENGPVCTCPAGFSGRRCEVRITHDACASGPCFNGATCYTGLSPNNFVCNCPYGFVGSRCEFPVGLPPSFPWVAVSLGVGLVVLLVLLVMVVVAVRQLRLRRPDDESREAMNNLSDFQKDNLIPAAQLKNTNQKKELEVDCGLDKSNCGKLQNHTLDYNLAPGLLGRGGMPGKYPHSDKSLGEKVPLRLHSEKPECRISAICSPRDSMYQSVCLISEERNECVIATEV
binder,measurement,setting,value
VEGFBII111D05 (VHH) VHH: EVQLVESGGGLVQTGGSLRLSCEASGRTFSSYSMGWFRQAPGKEREFVVAISKGGYKYDSVSLEGRFTISRDNAKNTVYLQINSLRPEDTAVYYCASSRAYGSSRLRLADTYEYWGQGTLVTVSS,% inhibition,[1],100%
same,IC50,[1],0.209 nM
VEGFBII113A08 (VHH) VHH: EVQLVESGGGLVQTGGSLRLSCEVSGRTFSSYSMGWFRQAPGKEREFVVAISKGGYKYDSVSLEGRFTISKDNAKNTVYLQINSLRPEDTAVYYCASSRAYGSSRLRLADTYEYWGQGTLVTVSS,% inhibition,[1],100%
same,IC50,[1],0.253 nM
VEGFBII114D03 (VHH) VHH: EVQLVESGGGLVQTGDSLRLSCAVSGRTFSSYSMGWFRQAQGKEREFVVAISKGGYKYDSVSLEGRFTISKDNAKNTVYLQINSLRPEDTAVYYCASSRAYGSSRLRLADTYEYWGQGTLVTVSS,% inhibition,[1],100%
same,IC50,[1],0.227 nM
VEGFBII118E10 (VHH) VHH: EVQLVESGGGLVQTGDSLRLSCEVSGRTFSSYSMGWFRQAQGKEREFVVAISKGGYKYDAVSLEGRFTISKDNAKNTVYLQINSLKPEDTAVYYCASSRAYGSSRLRLADTYEYWGQGTQVTVSS,% inhibition,[1],100%
same,IC50,[1],0.189 nM
VEGFBII112D11 (VHH) VHH: EVQLVESGGGLVQPGGSLRLSCEASGRTFSSYSMGWFRQAPGKEREFVVAISKGGYKYDSVSLEGRFTISRDNAKNTVYLQINSLRPEDTAVYYCASSRAYGSSRLRLADTYEYWGQGTLVTVSS,% inhibition,[1],100%
same,IC50,[1],0.221 nM
VEGFBII113E03 (VHH) VHH: EVQLVESGGGLVQTGDSLRLSCEVSGRTFSSYSMGWFRQAQGKEREFVVAISKGGYKYDSVSLEGRFTISKDNAKNTVYLQMNSLRPEDTAVYYCASSRAYGSSRLRLADTYEYWGQGTLVTVSS,% inhibition,[1],100%
same,IC50,[1],0.29 nM
VEGFBII114D02 (VHH) VHH: EVQLVESGGGLVQTGGSLRLSCEVSGRTFSSYSMGWFRQAPGKEREFVVAISKGGYKYDSVSLEGRFTISRDNAKNTVYLQINSLRPEDTAVYYCASSRAYGSSRLRLADTYEYWGQGTLVTVSS,% inhibition,[1],100%
same,IC50,[1],0.199 nM
VEGFBII111G06 (VHH) VHH: EVQLVESGGGLVQPGGSLRLSCAASGRTFSSYSMGWFRQAPGKEREFVVAISKGGYKYDSVSLEGRFTISRDNAKNTVYLQMNSLRPEDTAVYYCASSRAYGSSRLRLADTYEYWGQGTLVTVSS,% inhibition,[1],100%
same,IC50,[1],0.366 nM
VEGFBII114C09 (VHH) VHH: EVQLVESGGGLVQPGDSLRLSCEVSGRTFSSYSMGWFRQAPGKEREFVVAISKGGYKYDSVSLEGRFTISKDNAKNTVYLQINSLRPEDTAVYYCASSRAYGSSRLRLADTYEYWGQGTLVTVSS,% inhibition,[1],100%
same,IC50,[1],0.215 nM
DLLBII107C03 (VHH) VHH: EVQLVESGGGLVQPGGSLRLSCEVSGSIGSVSDMRWYRQAPGLQYELVARITSGSITDYSDSVKGRFTISRDNAKNTVYLQMNSLKPEDTAVYYCNADVQHSAWLKPLTYWGQGTQVTVSS,% inh,[2],75%
same,% inh,[3],80%
DLLBII133A05 (VHH) VHH: EVQLVESGGGLVQPGGSLRLSCAASGFTFGSYDMSWVRRSPGKGPEWVSAINSGGGSTFYTDYVKGRFTISRDNAKNTLYLQMNSLKPEDTAVYYCAADRYIWARQGEYWGAYQYDYWGQGTQVTVSS,IC50,[4],2.1 nM
same,IC50,[5],2.1 nM
"DLLBII129A03 (VHH, not shown: small tags and cut ends) VHH: EVQLVESGGGLVQAGGSLRLSCAASGRTFSSYAMAWFRQAPGKEREYVAAIRWSGGTAYYADSVQGRFTISRDNAKNTVYLQMNSLRPEDTAVYYCANRAPDTRLRPYLYDYWGQGTQVTVSS",Kd,[6],0.5 nM
same,koff,[6],0.00012 s⁻¹
same,kon,[6],210000 M⁻¹ s⁻¹
same,Kd,[7],0.5 nM
same,IC50,[4],1.8 nM
same,IC50,[5],1.8 nM
same,fold (off-rate vs DLLBII101G08),[8],19 fold
same,koff,[8],0.00012 s⁻¹
same,fold (off-rate vs DLLBII101G08),[9],18 fold
same,koff,[9],0.00038 s⁻¹
"DLLBII130F06 (VHH, not shown: small tags and cut ends) VHH: EVQLVESGGGLVQAGGSLRLSCAASGRTFSSYAMAWYRQAPGKEREYVAAIRWSGGTAYYADSVQGRFTISRDNAKNTVYLQMNSLKPEDTAVYYCANRAPDTRLAPYEYDYWGQGTQVTVSS",Kd,[6],0.4 nM
same,koff,[6],8e-05 s⁻¹
same,kon,[6],200000 M⁻¹ s⁻¹
same,Kd,[7],0.4 nM
same,IC50,[4],1.3 nM
same,IC50,[5],1.3 nM
same,fold (off-rate vs DLLBII101G08),[8],27 fold
same,koff,[8],6.5e-05 s⁻¹
same,fold (off-rate vs DLLBII101G08),[9],19 fold
same,koff,[9],0.00026 s⁻¹
"DLLBII129H07 (VHH, not shown: small tags and cut ends) VHH: EVQLVESGGGLVQAGGSLRLSCAASGRTFSSYAMAWYRQAPGKEREYVAAIRWSGGTAYYADSVQGRFTISRDNAKNTVYLQMNSLKPEDTAVYYCANRAPDTRLEPYEYDYWGQGTQVTVSS",Kd,[6],0.5 nM
same,koff,[6],7.3e-05 s⁻¹
same,kon,[6],160000 M⁻¹ s⁻¹
same,Kd,[7],0.5 nM
same,IC50,[4],1 nM
same,IC50,[5],1 nM
same,fold (off-rate vs DLLBII101G08),[8],30 fold
same,koff,[8],7.4e-05 s⁻¹
same,fold (off-rate vs DLLBII101G08),[9],27 fold
same,koff,[9],0.00025 s⁻¹
"DLLBII130B03 (VHH, not shown: small tags and cut ends) VHH: EVQLVESGGGLVQAGGSLRLSCAASGRTFSSYAMAWYRQAPGKEREYVAAIRWSGGTAYYADSVQGRFTISRDNAKNTVYLQMNSLKPEDTAVYYCANRAPDTRLAPYLYDYWGQGTQVTVSS",Kd,[6],0.3 nM
same,koff,[6],6.8e-05 s⁻¹
same,kon,[6],220000 M⁻¹ s⁻¹
same,Kd,[7],0.3 nM
same,IC50,[4],1.5 nM
same,IC50,[5],1.5 nM
same,fold (off-rate vs DLLBII101G08),[8],27 fold
same,koff,[8],6.7e-05 s⁻¹
same,fold (off-rate vs DLLBII101G08),[9],20 fold
same,koff,[9],0.00024 s⁻¹
DLLBII104A03 (VHH) VHH: EVQLVESGGGLVQAGGSLRLSCAASGDIPRIAAMGWYRQAPGKQRELVATVSNAATTRYADSAKGRFTISRDNAKTVSLQMDNLKPEDTGVYYCYSLATTVTPSWVNYWGQGTQVTVSS,% inh,[2],86%
same,% inh,[3],83%
DLLBII104B05 (VHH) VHH: EVQLVESGGGSVQAGGSLRLSCAASGSISRIDVMAWYRQAPGKERELVASISSGGSTNYADSVKGRFTISREYFKNMMYLQMNSLKFEDTAVYYCNADSRRGGVGNFFRSWGQGTQVTVSS,% inh,[2],86%
same,% inh,[3],78%
DLLBII80E08 (VHH) VHH: EVQLVESGGGLVQAGGSLTLSCAASGGTFTTYAMGWFRQAPGKEREFVAAVSRFGVSWDYADSVKGRFTISRDNTANTLKLRMNSLKADDTAVYYCAAGGRSFLPFVPAYWGQGTQVTVSS,% inh,[2],71%
same,% inh,[3],82%
